Reference: article PMC3508906 (Channels, 2012)

Target: the molecule itself
Assay: SEC-MALS

| Protein | stoichiometry N |
| --- | --- |
| YnaI, C-terminally His-tagged (pYnaI) (natural protein, E. coli, UniProt P0AEB5 1-343, looked up) MIAELFTNNALNLVIIFGSCAALILMSFWFRRGNRKRKGFLFHAVQFLIYTIIISAVGSIINYVIENYKLKFITPGVIDFICTSLIAVILTIKLFLLINQFEKQQIKKGRDITSARIMSRIIKITIIVVLVLLYGEHFGMSLSGLLTFGGIGGLAVGMAGKDILSNFFSGIMLYFDRPFSIGDWIRSPDRNIEGTVAEIGWRITKITTFDNRPLYVPNSLFSSISVENPGRMTNRRITTTIGLRYEDAAKVGVIVEAVREMLKNHPAIDQRQTLLVYFNQFADSSLNIMVYCFTKTTVWAEWLAAQQDVYLKIIDIVQSHGADFAFPSQTLYMDNITPPEQGR | 7 |
| YbiO, C-terminally His-tagged (pYbiO) (natural protein, E. coli K12 MG1655, UniProt P75783 19-741, looked up) VSIPGVTTTTTTDSTTEPAPEPDIEQKKAAYGALADVLDNDTSRKELIDQLRTVAATPPAEPVPKIVPPTLVEEQTVLQKVTEVSRHYGEALSARFGQLYRNITGSPHKPFNPQTFSNALTHFSMLAVLVFGFYWLIRLCALPLYRKMGQWARQKNRERSNWLQLPAMIIGAFIIDLLLLALTLFVGQVLSDNLNAGSRTIAFQQSLFLNAFALIEFFKAVLRLIFCPNVAELRPFTIQDESARYWSRRLSWLSSLIGYGLIVAVPIISNQVNVQIGALANVIIMLCMTVWALYLIFRNKKEITQHLLNFAEHSLAFFSLFIRAFALVWHWLASAYFIVLFFFSLFDPGNSLKFMMGATVRSLAIIGIAAFVSGMFSRWLAKTITLSPHTQRNYPELQKRLNGWLSAALKTARILTVCVAVMLLLSAWGLFDFWNWLQNGAGQKTVDILIRIALILFFSAVGWTVLASLIENRLASDIHGRPLPSARTRTLLTLFRNALAVIISTITIMIVLSEIGVNIAPLLAGAGALGLAISFGSQTLVKDIITGVFIQFENGMNTGDLVTIGPLTGTVERMSIRSVGVRQDTGAYHIIPWSSITTFANFVRGIGSVVANYDVDRHEDADKANQALKDAVAELMENEEIRGLIIGEPNFAGIVGLSNTAFTLRVSFTTLPLKQWTVRFALDSQVKKHFDLAGVRAPVQTYQVLPAPGATPAEPLPPGEPTL | 7 |
